The values that follow come from paper PMC6487875.

Substrate in the data set: N[C@@H](CC(=O)O)C(=O)O
The data set is described as follows: GLOX/HRP-coupled enzyme kinetics. The format is biochemical, Homo sapiens. The conditions noted are these: PLP.

Broadly, the Km is the substrate concentration at which the rate is half of its maximum.

B1: GOT1 (glutamate oxaloacetate transaminase 1, aspartate aminotransferase 1) (Homo sapiens) (protein)
chain: APPSVFAEVPQAQPVLVFKLTADFREDPDPRKVNLGVGAYRTDDCHPWVLPVVKKVEQKIANDNSLNHEYLPILGLAEFRSCASRLALGDDSPALKEKRVGGVQSLGGTGALRIGADFLARWYNGTNNKNTPVYVSSPTWENHNAVFSAAGFKDIRSYRYWDAEKRGLDLQGFLNDLENAPEFSIVVLHACAHNPTGIDPTPEQWKQIASVMKHRFLFPFFDSAYQGFASGNLERDAWAIRYFVSEGFEFFCAQSFSKNFGLYNERVGNLTVVGKEPESILQVLSQMEKIVRITWSNPPAQGARIVASTLSNPELFEEWTGNVKTMADRILTMRSELRARLEALKTPGTWNHITDQIGMFSFTGLNPKQVEYLVNEKHIYLLPSGRINVSGLTTKNLDYVATSIHEAVTKIQ
As to B1, the Km was 4 mM.
